From patent US7297837 (Johns Hopkins, dated 2007) come the findings set out here.

In this experiment the target is T1, full-length hMLH1 protein (human, UniProt P40692 1-756, 35S-labelled methionine where labelled).
T1 construct: Called full-length
T1 sequence (looked up): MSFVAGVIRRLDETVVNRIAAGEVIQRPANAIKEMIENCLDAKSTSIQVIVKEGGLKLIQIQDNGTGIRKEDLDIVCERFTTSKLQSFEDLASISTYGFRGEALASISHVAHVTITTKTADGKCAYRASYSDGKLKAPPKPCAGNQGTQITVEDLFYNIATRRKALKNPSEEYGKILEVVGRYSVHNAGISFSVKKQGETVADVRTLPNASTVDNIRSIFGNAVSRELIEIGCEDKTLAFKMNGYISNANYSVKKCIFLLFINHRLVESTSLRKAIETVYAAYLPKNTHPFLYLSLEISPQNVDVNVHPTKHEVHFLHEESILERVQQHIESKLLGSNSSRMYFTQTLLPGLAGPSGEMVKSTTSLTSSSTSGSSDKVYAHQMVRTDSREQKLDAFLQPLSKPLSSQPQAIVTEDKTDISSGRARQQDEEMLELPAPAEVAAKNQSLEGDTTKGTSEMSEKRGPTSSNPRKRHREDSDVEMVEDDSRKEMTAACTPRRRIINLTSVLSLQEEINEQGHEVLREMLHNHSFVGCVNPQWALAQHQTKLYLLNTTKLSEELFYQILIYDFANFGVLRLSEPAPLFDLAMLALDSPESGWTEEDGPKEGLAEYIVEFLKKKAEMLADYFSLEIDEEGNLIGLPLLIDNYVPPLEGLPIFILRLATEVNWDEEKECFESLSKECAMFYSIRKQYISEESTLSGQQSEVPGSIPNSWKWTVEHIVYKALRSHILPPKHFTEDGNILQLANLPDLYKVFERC
The experiment in a line: co-immunoprecipitation of in vitro translated proteins with anti-hMLH1 mAb (FIG. 5B, lane 1); converse with N-terminal hPMS2 antibody (FIG. 5C, lane 2). Here is the method: Immunoprecipitation, Immunoprecipitations were performed on in vitro translated proteins by mixing the translation reactions with 1 μg of the MLH1 specific monoclonal antibody (mAB) MLH14 (Oncogene Science, Inc.), a polyclonal antibody generated to codons 2-20 of hPMS2 described above, or a polyclonal antibody generated to codons 843-862 of hPMS2 (Santa Cruz Biotechnology, Inc.) in 400 µl of EBC buffer (50 mM Tris, pH 7.5, 0.1 M NaCl, 0.5% NP40). After incubation for 1 hr at 4° C., protein A sepharose (Sigma) was added to a final concentration of 10% and reactions were incubated at 4° C. for 1 hour. Proteins bound to protein A were washed five times in EBC and separated by electrophoresis on 4-20% Tris-glycine gels, which were then dried and autoradiographed.
Previous studies have shown that these two proteins dimerize to form a functionally active complex (12, 28). Proteins were synthesized in vitro using reticulocyte lysates, employing RNA generated from cloned templates. The full-length hMLH1 and hPMS2 proteins bound to each other and were co-precipitated with antibodies to either protein, as expected (data not shown). […] When a ^35S-labelled, full length hMLH1 protein (FIG. 5A, lane 5) was mixed with the unlabelled carboxyl terminal hPMS2 polypeptide, a monoclonal antibody (mAb) to the carboxyl terminus of hPMS2 efficiently immunoprecipitated the labeled hMLH1 protein (lane 1). […]

B1: hPMS-134 (containing codons 1-134 of hPMS2), in vitro translated (other, human, UniProt P54278 1-134, looked up)
chain: MERAESSSTEPAKAIKPIDRKSVHQICSGQVVLSLSTAVKELVENSLDAGATNIDLKLKDYGVDLIEVSDNGCGVEEENFEGLTLKHHTSKIQEFADLTQVETFGFRGEALSSLCALSDVTISTCHASAKVGTR
modifications: 35S-labelled methionine
notes: The patient allele expressed in cells is said to give the N-terminal 133 amino acids
On to B1, for which the binding result was “no binding”.
